Reference: IntAct's records for PubMed 18449195

B1: SOSS complex subunit B1 (Homo sapiens), Q9BQ15 (parent)
chain: MTTETFVKDIKPGLKNLNLIFIVLETGRVTKTKDGHEVRTCKVADKTGSINISVWDDVGNLIQPGDIIRLTKGYASVFKGCLTLYTGRGGDLQKIGEFCMVYSEVPNFSEPNPEYSTQQAPNKAVQNDSNPSASQPTTGPSAASPASENQNGNGLSAPPGPGGGPHPPHTPSHPPSTRITRSQPNHTPAGPPGPSSNPVSNGKETRRSSKR

Variants of: B1
Conditions: with atm_human ATM

| effect of a mutation on the interaction | Variant |
| --- | --- |
| disrupting interaction | T117A |
